Tested on: mesenchyme free lung explants (lung epithelium in Matrigel)
Test: mesenchyme-free lung explant culture, growth and branching
Format: cell-based, mouse
Conditions: both LKB1 wt/wt and LKB1 MG/MG, presence and absence of NMPP1
Experimental: Pancreas and individual lobes of the lungs were dissected from embryos harvested from timed pregnancy setups. Embryonic explants were cultured on 12 mm Transwell® with 0.4 μm polyester membrane insert (Corning, Tewsbury, Mass.) at the air-liquid interface in DME media with 10% fetal calf serum, glutamine and penicillin-streptomycin. For longer-term cultures (>3 days), media was changed daily.
For mesenchyme-free cultures, lungs were dissected and incubated in Collagenase/Dispase (1 mg/ml for each) for 10-15 minutes at room temperature. Epithelial tissue was removed by mechanical dissection, transferred to the Transwell® plates, and covered with 5-10 μl of 1:1 Matrigel:DME. After Matrigel was solidified, 400 μl media (DME/10% FCS/glutamine/pen-strep+200 ng/ml FGF7 (Life Technologies, Carlsbad, Calif.), FGF1 (Life Technologies), or EGF (Life Technologies)) was added to top and bottom wells. Erlotinib (Tarceva®, 1 μM hydrochloride salt; OSI Pharmaceuticals) or DMSO was added as indicated.
Embryonic explants were fixed in 4% paraformaldehyde, permeabilized in PBS with 2% BSA, 0.1% saponin or 0.1% Triton-X100. After washing, tissues were stained with anti-E-cadherin (Santa Cruz). […]
Homozygous germline mutations in LKB1 in mice are early embryonic lethal. […] During this time, the response of these tissues to growth factors was assessed.

B1: FGF-7: fibroblast growth factor FGF-7 (Life Technologies) (protein, UniProt P21781 32-194, looked up)
Fibroblast growth factor 7: CNDMTPEQMATNVNCSSPERHTRSYDYMEGGDIRVRRLFCRTQWYLRIDKRGKVKGTQEMKNNYNIMEIRTVAVGIVAIKGVESEFYLAMNKEGKLYAKKECNEDCNFKELILENHYNTYASAKWTHNGGEMFVALNQKGIPVRGKKTKKEQKTAHFLPMAIT
  growth of mesenchyme free lung cultures: robust growth

Reference: patent US20140314747A1, “PREDICTING RESPONSE TO EGFR INHIBITORS” (Genentech, Inc., priority 2013, published 2014)
